The nanobody polyreactivity screen of Harvey et al. (2022)

Experiment: yeast display, Sf9 membrane polyspecificity reagent, FACS + sequencing; frameworks hold sequencing errors
Outline: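 Galactose induction of a Saccharomyces cerevisiae BJ5465 synthetic nanobody display library ran 36–48 hours. The cells were then stained for 1 hour at 4 °C with 10% biotinylated, detergent-solubilized Sf9 membrane reagent, pulled down on streptavidin microbeads and FACS-sorted into low and high (top ~1%) gates on expression and reagent-binding fluorescence. Labels for polyreactivity follow the gate of origin.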

Sequence | polyreactivity (PSR sort gate)
QVQLVESGGGLVQAGGSLRLSCAASGYTFDKYAMGWYRPAPGKERELVAAITDGGSTNYADSVKGRFTISRDNAKNTVYLQMNSLKPEDTAVYYCNDELQWEVYYDRYPEYDHWGQGTQVTVSS | low polyreactivity
QVQLVESGGGLVQARGSLRLSCAASGRIFSKYAMGWYRQAPGKERELVAAISSSGVSTYYADSVKGRFTISRDNAKNTVYLQMNSLKPEDTAVYYCYKRTSPKRFDYWGQGTQVTVSS | high polyreactivity
QVQLVESGGGLVQAGGSLRLSCASSGSIFTGNVMGWYRQAPGKERELVAAISSRGGNTYYADSVKGRFTISRDNAKNTVYLQMNSLKPEDTAVYYCNKVKYTWYDWGQGTQVTVSS | high polyreactivity
QVQLVESGGGLVQAGGSLRLSCAASGITLSSNAMGWYRQAPGKERELVAAITWRTDRTYYADSVKGRFTISRDNAKNTVYLQMNSLKPEDTAVDYCAARTTVSSARYDYWGQGTQVTVSS | high polyreactivity
QVQLVDSGGGLVQAGGSLRLSCAASGSIFPRYAMGWYRQAPGKERELVASISASGGSTYYADSVKGRFTISRDNAKITVYLQMYSLKPEDTAVYYCAKADRTGWLDGDYWGQGTQVTVSS | low polyreactivity
QVQLEESGGGLVQAGGSLRLSCAASGSTFDYYARGWYRPAPGKERELVAVISSGGSTYYADSVKGRFTISRDNAKNTVYLQMNSLKPEDTAVYYCAAETYYYVLPHWYKYKYGYWGQGTQVTVSS | low polyreactivity
QVQLVESGGGLVQAGGSLRLSCAASGSIFYYYAMGWYRQAPGKERELVATISSGGGSTYYADSVKGRFTISRDNAKNTVYLQMNSLKPEDTAVYYCAKRRWRSYYDSWGQGTQVTVSS | low polyreactivity
QVQLVESGGGLVQAGGSLSLSCAASGRTFWLNSMGWYRQAPGKERELVATISSSSGSTTYADSVKGRFTISRDNAKNTVYLQMNSLKPEDTAVYYCAADWSDDVPGYDYWGQGTQVTVSS | low polyreactivity
QVQLVESGGGLVQAGGSLRLSCAASGGTFKTNAMGWYRQAPGTERELVAAIRYSGGDTYYADSVKGRFTISRDNAKNTVYLLLKSLKPEDTAVYYCAADFTLLYDYWGQGTQVTVSS | low polyreactivity
QVQLVESVGGLVQAGGILRLSCGASGRTFTGYTMRWYRQEPGKERELVATISRRGRSTYYADSVKGRFTISRDNAKNTVYLQMNSLKPEDTAVYYCAAEKPRAVYFEYDYWGLGTQVTVSS | high polyreactivity
QVQLVESGGGLVQAGGSLRLSCAASGRTFYRYAMGWYRQAPGKERELVAVISGRGGGTYYADSVKGRFTISRDNAKNTVYLQMNSLKPEDTAVYYCAKEYWGVTPTYYYWGQGTQVTVSS | high polyreactivity
QVQLVESGGGLVQAGGSLRLSCAASGNIFDLYAMGWYRQAPGKERELVAAITRSSSRTYYADSVKGRFTISRDNAKNTVYLQMNSLKPEDTAVYYCRAKQVNRFDYWGQGTKVTVSS | high polyreactivity
QVQLVESGGGVVQAGGSLRLSCAASGSTLRDYVMGWYRQAPGKERELVAAITSRVDDTYYADSVKGRFTISRDNAKNNVYLEMNRLKPEDTAVYYCAADYSVTLRIGGYYWFYAFDYWGQGTQVTVSS | low polyreactivity
QVQLVESGGGLVQAGGSLRLSCAASGGTFERNAMGWYRPAPGKERELVAAITGSGGRTYYADSVKGRFTISRDNAKNTVYLQMNSLKPEDTAVYYCAAVPWWKYNYWGQGTQVTVSS | high polyreactivity
QVQLVESGGGLVQAGGSLRLSCAASGLILVPNTMGWYRQAPGKARELVAAISYSGGGTYYADSVKGRFTISRDNAKNTVYLQMNSLKPEDTAVYYCAAYDKRESAPYGYWGQGTQVTVSS | low polyreactivity
QVQLVESGGGLVQAGGSLRLSCAASGFIFNGNAMGWYIQAPGKERELVVAISKSGGRTYYADSVKGRFTISRDNAKYTVYLQMNSLKPEDTAVYDCARRTYTRMYWGQGTQVTVSS | high polyreactivity
